Laboratory results taken from US20210032330A1 (PHANES THERAPEUTICS, published 2021).
Residue numbers refer to the chain shown, from its start.

B1: 12-M11-A (antibody, V domains shown)
VH: QVQLQQSGAELAKPGASVKMSCKASGYFTSYWMHWVKQRPGQGLEWIGYINPITGYTEYNQKFKDKATLTADKSSSTAYMQLSRLTSEDSAVYYCARGVENFDYLYAMDYWGQGASVTVSS
VL: QIVLTQSPAIMSASPGEKVTMTCSASSSISYMHWYQQKPGTSPKRWIYDTSKLASGVPTRFNGSGSGTSYSLTISSMEAEDAATYYCHQRSSYRTFGGGTKLEIK
notes: also called anti-TIM-3 monoclonal antibody 12-M11-A
B2: anti-TIM-3 monoclonal antibody 5-K4-A (antibody, V domains shown)
VH: EVQLQQSGPELVKTGASVKISCKASGYSFTAYYIHWVKQSHGKSLEWIGHISCFNGATSYNQKFKGKATFTVDTSSSTAYMQFNSLTSEDSAVYYCARRGDFDRPEFAYWGQGTLVTVSA
VL: DIVLTQSPASLAVSLGQRATISCRASESVEYYGTSLMQWYQQKPGQPPKLLIYAASNVESGVPARFSGSGSGTDFSLNIHPVEEDDIAMYFCQQSRKVPWTFGGGTKLEIK
notes: Mouse hybridoma mAb; captured on anti-mouse Fc biosensors
B3: 7-N2-A (antibody, V domains shown)
VH: QVQLKESGPGLVAPSQSLSITCTVSGFSLTGFGVNWVRQPPGKGLEWLGMIWGDGSTDYNSTLKSRLSISKDNSKSQVFLKMNSLQTDDTARYYCARDYYGYVGNAMDYWGQGTSVTVSS
VL: DIVMSQSPSSLAVSAGEKVTMSCKSSQSLLNSRTRKNYLAWYQQKPGQSPKLLIYWASTRESGVPDRFTGSGSGTDFTLTISSVQAEDLAVYYCKQSYNHMYTFGGGTKLEIK
notes: also called anti-TIM-3 monoclonal antibody 7-N2-A
B4: 6-H6-A (antibody, V domains shown)
VH: EVQLQQFGAELVKPGASVKISCKASGYTFTDYNMDWVKQSHGKSLEWIGDIDPNYDSTTYNQKFKGKATLTVDKSSSTAYMELRSLTSEDTAVYYCARGGHYRYDGYYAMDYWGQGTSVTVSS
VL: DIVLTQSPASSAVSLGQRATFSCRASQSVSTSSYSFMHWYQQKPGQPPKLLIKYASNLESGVPARFSGSGSGTDFTLNIHPVEEEDTATYYCQHSWEIPPTFGGGTNLEIK
notes: also called anti-TIM-3 monoclonal antibody 6-H6-A
B5: anti-TIM-3 monoclonal antibody 6-I13-A (antibody, V domains shown)
VH: EVQLQQSGPELEKPGASVKISCKASGYSFTGYNMNWVKQSNGKSLEWIGNIDPYYGVTSYNQKFKGKATLTVDKSSSTAYMQLKSLTSEDSAVYYCASYSLTYDGYYPFAYWGQGTLVTVSA
VL: DIVLTQSPASLAVSLGQRATISCRASKSVSTSGYSYMHWYQQKPGQPPKLLIYLASNLESGVPARFSGSGSGTDFTLNIHPVEEEDAATYYCQHSRELPYTFGGGTKLEIK
notes: as for B2
B6: H1L1 (antibody, V domains shown)
VH: EVQLVESGGGLVQPGGSLRLSCAASGYTFTSSDINWVRQAPGKGLVWIGWIFPGDGSTKYTPSLKDQATLSTDKAKNTAYLQMNSLRAEDTAVYFCARGLDYWGQGTLVTVSS
VL: DIQMTQSPSSLSASVGDRVTITCKASQDINSYLGWFQQKPGKAPKTLIYRADRLVDGVPSRFSGSGSGQDYTFTISSLQPEDIATYYCLQYDEFPLTFGQGTKLEIK
notes: also called humanized version of anti-TIM-3 mAb 16-K5-A, VH H1 with VL L1
B7: H2L1 (antibody, V domains shown)
VH: B6 VH with K74L
VL: B6 VL
notes: also called humanized version of anti-TIM-3 mAb 16-K5-A, VH H2 with VL L1
B8: Chimeric (antibody, V domains shown)
VH: QVQLQQSGAELVKPGASVKLSCKASGYTFTSSDINWVRQRPEQGLEWIGWIFPGDGSTKYNEKFKGKATLTTDKSSSTAYMQLSRLTSEDSAVYFCARGLDYWGQGTTLTVSS
VL: DIKMTQSPSSMYASLGERVTITCKASQDINSYLGWFQQKPGKSPKTLIYRADRLVDGVPSRFSGSGSGQDYSLTISSLEYEDMGIYYCLQYDEFPLTFGAGTKLELK
notes: detected with anti-human IgG-HRP; also called chimeric version of anti-TIM-3 mAb 16-K5-A
B9: H5L5 (antibody, V domains shown)
VH: QVQLQESGPGLVKPSETLSLTCTASGYTFTSSDINWVRQPPGKGLEWIGWIFPGDGSTKYNPSLKSRATLSTDKSKNQASLNLDSVSAADTAIYFCARGLDYWGKGSTVTVSS
VL: B6 VL with Q100P, L104V, E105D
notes: also called humanized version of anti-TIM-3 mAb 16-K5-A, VH H5 with VL L5
B10: H7L5 (antibody, V domains shown)
VH: B9 VH with T23K, D84S, S87T, I93V, S107T
VL: B6 VL with Q100P, L104V, E105D
notes: also called humanized version of anti-TIM-3 mAb 16-K5-A, VH H7 with VL L5
B11: anti-TIM-3 monoclonal antibody 16-J5-A (antibody, V domains shown)
VH: DVQLVESGGGLVQPGGSRKLSCAASGFTFSSFGMNWVRQAPEKGLEWVAYISSGSSTIYYADTVKGRFTISRDNPKNTLFLQMTSLRSEDTAMYYCARWGRWADFDYWGQGTTLTVSS
VL: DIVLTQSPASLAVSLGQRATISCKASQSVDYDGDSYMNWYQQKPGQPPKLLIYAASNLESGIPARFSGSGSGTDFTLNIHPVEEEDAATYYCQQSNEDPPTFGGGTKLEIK
notes: as for B2
B12: anti-TIM-3 monoclonal antibody 18-N1-A (antibody, V domains shown)
VH: QVQLQQPGAELVRPGVSVKLSCKASGYTFTSYWMHWIKQRPEQGLERIGEINPSNGGTNYNEKFKNKATLTVDKSSSTAYMQLSSLTSEDSAVYYCARSYYTYDAIDYWGQGTSVTVSS
VL: DIVMSQSPSSLAVSAGEKVTMSCKSSQSLLNSRTRKNYLAWYQQKPGQSPKLLIYWASTRESGVPDRFTGSGSGTDFTLTISSVQAEDLAVYYCKQSYNLYTFGGGTKLEIK
notes: as for B2
B13: anti-TIM-3 monoclonal antibody 16-L3-A (antibody, V domains shown)
VH: QVQLQQSGPELVKPGASVKMSCKASGYTFTSYYIHWVKQRPGQGLEWIGWIYPGDGSTKYNEKFKGKTTLTADKSSSTAYMLLSSLTSEDSAIYFCATDRYDVAYWGQGTLVTVSA
VL: EIVLTQSPALMAASPGEKVTITCSVSSSISSSNLHWYQQKSETSPKPWIYGTSNLASGVPVRFSGSGSGTSYSLTISSMEAEDAATYYCQQWSSYPLTFGAGTKLELK
notes: as for B2
B14: anti-TIM-3 monoclonal antibody 20-L10-A (antibody, V domains shown)
VH: QIQLVQSGPELKKPGETVKISCKASGYTFTNYGMNWVKQAPGKVLKWMVWINTYTGEPTYADDFKGRFAFSLETSASTAYLQINNLKNEDTATYFCARDAMDYWGQGTSVTVSS
VL: DVVMTQTPLSLPVSLGDQASISCRSSQSLVHSNGNTYLHWYLQKPGQSPKLLIYKVSNRFSGVPDRFSGSGSGTDFTLKISRVEAEDLGVYFCSQNTHVPWTFGGGTKLEIK
notes: as for B2
B15: anti-TIM-3 monoclonal antibody 8-F3-A (antibody, V domains shown)
VH: B14 VH with V44G, V49A, A100L, M101E, S109T, V110L
VL: B14 VL with N96T
notes: as for B2
B16: anti-TIM-3 monoclonal antibody 15-L23-A (antibody, V domains shown)
VH: B14 VH with K23R, V44G, Y60F, N84I, A100T
VL: B14 VL with V2I
notes: as for B2
B17: anti-TIM-3 monoclonal antibody 1-A19-A (antibody, V domains shown)
VH: B4 VH with S57I, M110L
VL: DIVLTQSPASLAVSLGQRATISCKASQSVDYDGDSYMNWYQQKPGQPPKLLIYAASNLESGIPARFSGSGSGTDFTLNIHPVEEEDAATYYCQQSNEDPFTFGSGTKLEIK
notes: as for B2
B18: anti-TIM-3 monoclonal antibody 10-O15-A (antibody, V domains shown)
VH: QVQLQQSGADLVRPGASVKLSCKALGYTFTDYEMHWVKQTPVHGLEWIGAIHPGSGGTAYNQKFKGKATLTADKSSSTAYMELSSLTSEDSAVYFCSRSYYRYTGYFDVWGAGTTVTVSS
VL: B5 VL with T31A, I79V, Y100F, G104S
notes: as for B2
B19: anti-TIM-3 monoclonal antibody 16-K5-A (antibody, V domains shown)
VH: B8 VH
VL: B8 VL
notes: Mouse hybridoma mAb (parent of the humanized H1L1, H2L1, H5L5, H7L5); captured on anti-mouse Fc biosensors; also called mouse anti-TIM-3 mAb 16-K5-A
B20: anti-TIM-3 monoclonal antibody 10-M21-A (antibody, V domains shown)
VH: DVQLQESGPTLVKPSQTLSLTCSVTGDSITSGYWNWIRKFPGNKLEYMGYISYSGSTYYNPSLKSRISIIRDTSKNQYYLQLNSVTTEDTATYYCVSGNHFDYWGQGTTLTVSS
VL: DIQMTQSPSSLSASLGGKVTITCKASQDINRYIAWYQHKPGKGPRLLIHYTSTLQPGIPSRFSGSGSGRDYSFSISNLEPEDIATYYCLQYDNLLFTFGSGTKLEIK
notes: as for B2
B21: 7-P15-A (antibody, V domains shown)
VH: B14 VH with V44G, V49G, A100L, S109T, V110L
VL: B14 VL with S81T, N96S, T97I, W101Y
notes: also called anti-TIM-3 monoclonal antibody 7-P15-A
B22: 18-O22-A (antibody, V domains shown)
VH: EVQLQQSGPELVKPGASVKVSCKASGYTFTSYVMHWVKQKPGQGLEWIGYINPYNDVTKYNEKFKGKATLTSDKSSSTAYMELSSLTSEDSAVYYCARSSDYDDGHWYFDVWGAGTTVTVSS
VL: DIVLTQSPASLAVSLGQRATISCKASQSVDYDGESYMNWYQQKPGQPPKLLIYVASNLESGIPVRFSGSGSGTDFTLNIHPVEEEDAATYYCQQSNEDPTWTFGGGTKLEIK
notes: also called anti-TIM-3 monoclonal antibody 18-O22-A

biological target: T1, human T-cell immunoglobulin and mucin-domain containing molecule 3 (TIM-3) (human, UniProt Q8TDQ0 22-200, limits assumed); experiment: competition ELISA: pre-equilibrated mixture of mAb and human TIM3(ECD)-huFc on plate-coated phosphatidylserine (PtdSer, a lipid), anti-huFc-HRP detection, % inhibition
T1 construct: also called Human TIM-3
Method: (§1) ELISA plates were coated with PtdSer or PtdChol, washed and incubated with a pre-equilibrated mixture of purified antibodies at various concentrations and TIM3(ECD)-huFc. The plates were washed and then the signal was detected by incubation with HRP-coupled anti-huFc secondary antibody and then a HRP substrate. TIM-3 binding to PtdSer was used as 100% signal and TIM-3 binding to PtdChol as zero (background) to calculate percent of inhibition by a given mAb.
(§2) To determine the effect of anti-TIM-3 antibodies on the interaction of TIM-3 with phosphatidylserine (PtdSer), 384-well ELISA plates were coated with PtdSer or phosphatidylcholine (PtdChol) at room temperature. The wells were washed using PBS supplemented with 0.1% Tween-20 and then blocked using PBS supplemented with 2% bovine serum albumin (BSA). […] The plates were washed and then incubated with HRP-coupled anti-huFc secondary antibody. Plates were washed, incubated with an HRP substrate, and read using a POLARstar Omega Microplate (BMG LABTECH). The assay was performed in triplicate.

Row | IC50 (read off the curve) [nM] | Binder
1 | ~7 | B1
2 | ~6 | B2

biological target: T1, human T-cell immunoglobulin and …; experiment: as above; remark: another data set of the same source
Method: as §1, §2

Row | IC50 (read off the curve) [nM] | binding result | Binder
3 | ~7 |  | B3
4 |  | binds | B4
5 | ~4 |  | B5

biological target: T1, human T-cell immunoglobulin and …; experiment: ELISA, recombinant human TIM-3(ECD)-6His coated on the plate, anti-human IgG-HRP detection, absorbance at 450 nm
Method: (§3) Recombinant human TIM-3(ECD)-6His in carbonate coating buffer was coated on an ELISA plate at 4° C. overnight.

Row | EC50 (read off the curve) [nM] | Binder
6 | ~0.07 | B6
7 | ~0.09 | B7
8 | ~0.09 | B8

biological target: T1, human T-cell immunoglobulin and …; experiment: as above; remark: another data set of the same source
Method: as §3

Row | EC50 (read off the curve) [nM] | Binder
9 | ~0.2 | B9
10 | ~0.1 | B10
11 | ~0.2 | B8

biological target: T1, human T-cell immunoglobulin and …; experiment: BLI (OCTET Red96), mAb on anti-mouse Fc biosensor, antigen in solution, 1:1 model
Method: Binding experiments were performed on OCTET Red96 at 25° C. Antibodies were loaded onto Anti-Mouse Fc (AMC) biosensors. Loaded sensors were dipped into serial dilutions of antigen. Kinetic constants were calculated using a monovalent (1:1) model. The assay buffer was PBS supplemented with 0.1% BSA, 500 mM NaCl, 0.02% Tween-20, pH 7.2.

Row | Kd [nM] | Binder
12 | 2.7 | B11
13 | 1.1 | B12
14 | 14 | B13
15 | 10 | B14
16 | 1.6 | B15
17 | 13 | B16
18 | 2.2 | B17
19 | 9.9 | B5
20 | 3.1 | B18
21 | 7.9 | B19
22 | 16 | B20
23 | 1.8 | B2

biological target: T1, human T-cell immunoglobulin and …; experiment: competition ELISA: pre-equilibrated mixture of mAb and human TIM3(ECD)-huFc on plate-coated phosphatidylserine (PtdSer, a lipid), anti-huFc-HRP detection, % inhibition; remark: another data set of the same source
Method: as §1, §2

Row | binding result | Binder
24 | binds | B21
25 | binds | B22
